# Measurements taken from the Immune Epitope Database (IEDB).
# Key:
# HLA-B*58:01 = assay: IEDB peptide-MHC binding, purified MHC/competitive/fluorescence; filed as Kd, often an IC50 or EC50 that approximates it; ≥ and ≤ were set here for values at or beyond the usual limits of such assays; conditions: source organism: Escherichia coli str. K-12 substr. MG1655
# HLA-B*39:01 = assay: as above; conditions: source organism: Escherichia coli str. K-12 substr. MG1655
# HLA-C*05:01 = assay: IEDB peptide-MHC binding, purified MHC/direct/fluorescence; filed as Kd, often an IC50 or EC50 that approximates it; ≥ and ≤ were set here for values at or beyond the usual limits of such assays
# HLA-C*14:02 = assay: as above
# HLA-C*03:03 = assay: as above; conditions: source organism: Escherichia coli str. K-12 substr. MG1655
# HLA-B*08:01 = assay: IEDB peptide-MHC binding, purified MHC/competitive/fluorescence; filed as Kd, often an IC50 or EC50 that approximates it; ≥ and ≤ were set here for values at or beyond the usual limits of such assays; conditions: source organism: Shigella flexneri 5 str. 8401
# HLA-B*45:06 = assay: as above
# HLA-A*31:01 [1] = assay: as above; conditions: source organism: Shigella flexneri 5 str. 8401
# HLA-A*02:01 [2] = assay: as above; conditions: source organism: Shigella flexneri 5 str. 8401
# HLA-A*32:15 = assay: as above
# HLA-B*83:01 = assay: as above
# HLA-A*24:02 [3] = assay: as above; conditions: source organism: Shigella flexneri 5 str. 8401
# HLA-B*15:42 = assay: as above
# HLA-A*29:02 = assay: as above; conditions: source organism: Mycosarcoma maydis
# HLA-C*04:01 = assay: as above
# HLA-A*32:07 = assay: as above
# HLA-C*07:02 = assay: IEDB peptide-MHC binding, purified MHC/direct/fluorescence; filed as Kd, often an IC50 or EC50 that approximates it; ≥ and ≤ were set here for values at or beyond the usual limits of such assays; conditions: source organism: Mycobacterium tuberculosis variant bovis BCG str. Pasteur 1173P2
# HLA-A*02:03 = assay: as above; conditions: source organism: Mycobacterium tuberculosis str. Haarlem
# HLA-C*15:02 = assay: as above
# HLA-A*02:11 = assay: as above; conditions: source organism: Mycobacterium tuberculosis str. Haarlem
# HLA-C*06:02 = assay: as above; conditions: source organism: Mycobacterium tuberculosis variant bovis BCG str. Pasteur 1173P2
# HLA-A*69:01 = assay: as above; conditions: source organism: Mycobacterium tuberculosis
# HLA-A*11:01 = assay: IEDB peptide-MHC binding, purified MHC/competitive/fluorescence; ≥ and ≤ were set here for values at or beyond the usual limits of such assays
# HLA-B*15:01 = assay: as above; conditions: source organism: Vaccinia virus Copenhagen
# HLA-A*01:01 = assay: as above
# HLA-A*03:01 = assay: as above; conditions: source organism: Vaccinia virus Copenhagen
# HLA-A*68:01 = assay: IEDB peptide-MHC binding, purified MHC/competitive/radioactivity; filed as Kd, often an IC50 or EC50 that approximates it; ≥ and ≤ were set here for values at or beyond the usual limits of such assays; conditions: source organism: Vaccinia virus WR
# HLA-A*31:01 [4] = assay: as above; conditions: source organism: Vaccinia virus WR
# HLA-A*33:01 = assay: as above; conditions: source organism: Vaccinia virus WR
# HLA-C*08:02 = assay: IEDB peptide-MHC binding, purified MHC/direct/fluorescence; filed as Kd, often an IC50 or EC50 that approximates it; ≥ and ≤ were set here for values at or beyond the usual limits of such assays; conditions: source organism: Mycobacterium tuberculosis str. Haarlem
# HLA-A*26:01 = assay: as above; conditions: source organism: Mycobacterium tuberculosis
# HLA-A*02:01 [5] = assay: IEDB peptide-MHC binding, purified MHC/competitive/fluorescence; ≥ and ≤ were set here for values at or beyond the usual limits of such assays; conditions: source organism: Zaire ebolavirus
# HLA-A*24:02 [6] = assay: as above; conditions: source organism: Zaire ebolavirus
# [7] = source organism: Escherichia coli str. K-12 substr. MG1655
# [8] = source organism: Shigella flexneri 5 str. 8401
# [9] = source organism: Mycosarcoma maydis
# [10] = source organism: Mycobacterium tuberculosis variant bovis BCG str. Pasteur 1173P2
# [11] = source organism: Vaccinia virus Copenhagen
# [12] = source organism: Mycobacterium tuberculosis str. Haarlem
# [13] = source organism: Zaire ebolavirus
sequence,measurement,setting,value
AAAVAYPEL,Kd,HLA-B*58:01,≥ 20 µM
same,Kd,HLA-B*39:01,≥ 20 µM
same,Kd,HLA-C*05:01; [7],≥ 20 µM
same,Kd,HLA-C*14:02; [7],2990 nM
same,Kd,HLA-C*03:03,2 nM
IIMRRFFYF,Kd,HLA-B*08:01,22.2 nM
same,Kd,HLA-B*45:06; [8],≥ 5 µM
same,Kd,HLA-A*31:01 [1],1.2 nM
same,Kd,HLA-A*02:01 [2],32.9 nM
same,Kd,HLA-A*32:15; [8],67.7 nM
same,Kd,HLA-B*83:01; [8],≥ 5000 nM
same,Kd,HLA-A*24:02 [3],≤ 0.1 nM
same,Kd,HLA-B*15:42; [8],≥ 5 µM
IPVHPRHPY,Kd,HLA-A*29:02,938 nM
same,Kd,HLA-B*45:06; [9],≥ 5 µM
same,Kd,HLA-A*32:15; [9],1430 nM
same,Kd,HLA-B*83:01; [9],222 nM
same,Kd,HLA-C*04:01; [9],≥ 5 µM
same,Kd,HLA-A*32:07; [9],392 nM
same,Kd,HLA-B*15:42; [9],≥ 5 µM
YMLDMTFPV,Kd,HLA-C*07:02,651 nM
same,Kd,HLA-C*05:01; [10],3.43 µM
same,Kd,HLA-A*02:03,≤ 1 nM
same,Kd,HLA-C*15:02; [10],407 nM
same,Kd,HLA-A*02:11,≤ 1 nM
same,Kd,HLA-C*14:02; [10],76 nM
same,Kd,HLA-C*06:02,≥ 20 µM
same,Kd,HLA-A*69:01,≤ 1 nM
KSNAKCIEY,IC50,HLA-A*11:01; [11],21.7 µM
same,IC50,HLA-B*15:01,18.2 µM
same,IC50,HLA-A*01:01; [11],41.8 µM
same,IC50,HLA-A*03:01,16.5 µM
same,Kd,HLA-A*68:01,≥ 24.7 µM
same,Kd,HLA-A*31:01 [4],347 nM
same,Kd,HLA-A*33:01,≥ 25.8 µM
YTPEQWWPF,Kd,HLA-B*45:06; [12],≥ 5 µM
same,Kd,HLA-A*32:15; [12],38.2 nM
same,Kd,HLA-B*83:01; [12],≥ 5000 nM
same,Kd,HLA-C*04:01; [12],≥ 5 µM
same,Kd,HLA-A*32:07; [12],22.9 nM
same,Kd,HLA-B*15:42; [12],≥ 5 µM
same,Kd,HLA-C*08:02,≥ 20 µM
same,Kd,HLA-A*26:01,11.4 nM
same,Kd,HLA-C*15:02; [12],≥ 20000 nM
same,Kd,HLA-C*14:02; [12],969 nM
ITDKIDQII,IC50,HLA-A*11:01; [13],39.2 µM
same,IC50,HLA-A*02:01 [5],5.02 µM
same,IC50,HLA-A*01:01; [13],5.95 µM
same,IC50,HLA-A*24:02 [6],8.7 µM
